Target: T1, MBP-5Myc-HsSAS-6 full length (human, UniProt Q6UVJ0 1-657)
T1 construct: HsSAS-6 full length, cloned into a modified pENTR-1A-5Myc-MBP vector; also called MBP-HsSAS-6; source: Sf9 (baculovirus), purified (amylose resin); not shown: MBP, N-terminal, kept; 5Myc, N-terminal, kept
T1 sequence (looked up): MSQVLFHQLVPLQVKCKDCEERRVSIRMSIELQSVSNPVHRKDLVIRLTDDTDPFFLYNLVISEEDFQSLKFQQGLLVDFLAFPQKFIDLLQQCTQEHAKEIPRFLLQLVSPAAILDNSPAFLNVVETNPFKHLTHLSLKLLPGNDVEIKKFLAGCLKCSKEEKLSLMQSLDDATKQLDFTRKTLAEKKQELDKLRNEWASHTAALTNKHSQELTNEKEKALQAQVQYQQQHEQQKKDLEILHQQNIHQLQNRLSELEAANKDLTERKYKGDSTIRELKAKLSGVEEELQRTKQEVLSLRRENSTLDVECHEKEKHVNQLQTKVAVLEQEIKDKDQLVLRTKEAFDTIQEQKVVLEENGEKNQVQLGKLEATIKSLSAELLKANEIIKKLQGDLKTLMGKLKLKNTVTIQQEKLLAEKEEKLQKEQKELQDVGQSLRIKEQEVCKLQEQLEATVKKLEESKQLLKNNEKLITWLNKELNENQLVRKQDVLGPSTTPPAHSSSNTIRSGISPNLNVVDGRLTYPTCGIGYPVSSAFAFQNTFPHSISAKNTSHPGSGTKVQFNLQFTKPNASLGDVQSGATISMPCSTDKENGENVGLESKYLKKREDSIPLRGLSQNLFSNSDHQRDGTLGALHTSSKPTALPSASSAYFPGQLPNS
Test: pull-down; bacterially purified STIL fragments after an in vitro kinase reaction with Plk4ΔPEST-FLAG on anti-FLAG beads (supernatant; for N3C also the FLAG-peptide eluate) incubated with MBP-HsSAS-6 full length and pulled down with amylose resin; western blot
Details: both partners purified

B1: STIL C fragment (a.a. 1,018–1,287) phosphorylated by Plk4ΔPEST-FLAG (domain or fragment, human, UniProt Q15468 1018-1287, looked up)
chain: NAHNVDHASVLACISPEAVISGLNCMSFANVGMSGLSPNGVDLSMEANAIALKYLNENQLSQLSVTRSNQNNCDPFSLLHINTDRSTVGLSLISPNNMSFATKKYMKRYGLLQSSDNSEDEEEPPDNADSKSEYLLNQNLRSIPEQLGGQKEPSKNDHEIINCSNCESVGTNADTPVLRNITNEVLQTKAKQQLTEKPAFLVKNLKPSPAVNLRTGKAEFTQHPEKENEGDITIFPESLQPSETLKQMNSMNSVGTFLDVKRLRQLPKLF
modifications: phosphorylated in vitro by Plk4ΔPEST-FLAG: S1061, S1116, S1181, T1238, T1250
notes: human STIL C fragment, a.a; 1,018–1,287; also called GST-HA-STIL C; C-terminal fragment of STIL; source: E. coli BL21 gold (DE3), purified (glutathione sepharose), then phosphorylated in vitro by Plk4ΔPEST-FLAG; not shown: HA, N-terminal, kept
binding result: binds
